In the supplement of paper PMC12764529:
± gives the half width of the 95% confidence interval.

Assays:
[1] = folding stability dG unfold from chymotrypsin proteolysis; higher = more stable
Summary of the method: (§1)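 Only designs with AlphaFold2 dimer inter-PAE above 15 were retained; each was a mini-protein under 80 residues with no cysteine, in a PA-tagged cDNA display construct. After digestion with trypsin and chymotrypsin and sequencing, K50 was inferred by Bayesian fitting of counts, and unfolding free energy was derived per protease or combined against a sequence-predicted unfolded-state K50 and a shared folded-state K50.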

[2] = folding stability dG unfold (combined trypsin and chymotrypsin); higher = more stable
Summary of the method: as §1

[3] = folding stability dG unfold from trypsin proteolysis; higher = more stable
Summary of the method: as §1

Row | Sequence | folding stability dG unfold [1] | folding stability dG unfold [2] | folding stability dG unfold [3]
1 | SAGGSAGGSAGGSGMVEVVSPDLSPEELKERIRKELGDPSVKVEVTTLSDGTQLARVPASAGGSAGGSAGGS [r4_408_JUSTAS] | -0.0859 ± 0.061 kcal/mol | -0.365 ± 0.12 kcal/mol | -1.74 ± 0.72 kcal/mol
2 | SAGGSAGGSAGGSGNYVPGPSLVTFYDPKTNKWTVVKSAPEEAVKLKASLPENVAKISLSAGGSAGGSAGGS [r4_282_JUSTAS] | -0.0321 ± 0.27 kcal/mol | -0.179 ± 0.32 kcal/mol | -0.237 ± 0.21 kcal/mol
3 | SAGGSAGGSAGGSGQEIPFMLIIKDPDGELDYIIQIEMRRVPNGGVDIEITEIIPAKDISAGGSAGGSAGGS [r4_117_TrROS] | 1.76 ± 0.039 kcal/mol | 1.77 ± 0.1 kcal/mol | 1.55 ± 0.1 kcal/mol
4 | SAGGSAGGSAGGSGYTVKITLKNPDGTESTITISGTGSKEEIINSIKKKYPNNVTKVIESAGGSAGGSAGGS [r4_412_JUSTAS] | 1.94 ± 0.069 kcal/mol | 1.53 ± 0.31 kcal/mol | 1.37 ± 0.16 kcal/mol
5 | SAGGSAGGSAGGSKAKKITIWIPPGNINPEVKDQLQKEGINIEIQPIPAKRDPDGKPRWSAGGSAGGSAGGS [r4_294_TrROS] | 1.2 ± 0.036 kcal/mol | 0.81 ± 0.14 kcal/mol | -0.558 ± 0.34 kcal/mol
6 | SAGGSAGGSAGGSKKIKIKVPPGARVRLKNGKWFSVEDIEKLKELGIKEIEIEKLPPKKSAGGSAGGSAGGS [r4_47_TrROS_Hall] | 1.13 ± 0.09 kcal/mol | 0.999 ± 0.081 kcal/mol | 0.669 ± 0.037 kcal/mol
7 | SAGGSAGGSAGGSKKIVIRVKDKDGNEREIVLEVPEEELTEEEIAELAKKFPNAEIEVLSAGGSAGGSAGGS [r4_422_TrROS_Hall] | 1.02 ± 0.053 kcal/mol | 1.96 ± 0.13 kcal/mol | 2.48 ± 0.13 kcal/mol
8 | SAGGSAGGSAGGSKKIYLIKIEIEKKITYDKKTKELKIEEKIKIKIEPLSEEDLEKLLKSAGGSAGGSAGGS [r4_274_TrROS_Hall] | 3.83 ± 0.18 kcal/mol | 3.69 ± 0.46 kcal/mol | 2.97 ± 0.25 kcal/mol
9 | SAGGSAGGSAGGSKKTITLDIKVNGYLVKVKLNLETNKLEIVEVYKVSPEKKKLSPKDKSAGGSAGGSAGGS [r4_21_TrROS_Hall] | 2.33 ± 0.068 kcal/mol | 1.93 ± 0.1 kcal/mol | 0.824 ± 0.029 kcal/mol
10 | SAGGSAGGSAGGSKKTITVTVLFKDKNGKPVYIAKAKVTLNENGEETIEITEIYPLEDLSAGGSAGGSAGGS [r4_117_TrROS_Hall] | 2.36 ± 0.15 kcal/mol | 2.34 ± 0.27 kcal/mol | 1.8 ± 0.12 kcal/mol
11 | SAGGSAGGSAGGSKKTLTLPITITVTVTYTNEDGSTTETTYTYTLTINFEVSENDTGLLSAGGSAGGSAGGS [r10_1133_TrMRF] | 3.269 ± 0.013 kcal/mol | 2.92 ± 0.071 kcal/mol | 2.23 ± 0.062 kcal/mol
12 | SAGGSAGGSAGGSKLKIELNEDGTLRIVNEDTNEVYEIKLELPPPPPVETEVKYVSLEDLSAGGSAGGSAGG [r11_352_TrROS_Hall] | 0.842 ± 0.26 kcal/mol | 0.47 ± 0.31 kcal/mol | 0.604 ± 0.18 kcal/mol
13 | SAGGSAGGSAGGSKMYKIKIVNKKTKKVITVEVSEEDIEKALEAAKKAGVEKIEIEEVPSAGGSAGGSAGGS [r4_102_TrROS_Hall] | 1.7 ± 0.12 kcal/mol | 1.82 ± 0.13 kcal/mol | 2.03 ± 0.17 kcal/mol
14 | SAGGSAGGSAGGSKYIVIRIPGSVDELIDYLRDSGFKIKIESVEYDPPNGEFYVVFKIKSAGGSAGGSAGGS [r4_315_TrROS] | 3.063 ± 0.025 kcal/mol | 2.87 ± 0.052 kcal/mol | 2.53 ± 0.073 kcal/mol
15 | SAGGSAGGSAGGSKYVVIRVKKSVDELKDALKKAGFKVKIVSVYYDKENKEIYVVVKIESAGGSAGGSAGGS [r4_315_TrROS_Hall] | 4.45 ± 0.14 kcal/mol | 4.16 ± 0.17 kcal/mol | 3.7 ± 0.15 kcal/mol
16 | SAGGSAGGSAGGSLIVPAKDAVRFAEEWRRRFGGRFEIRGIPGIPFVPILVRPPDPAEFSAGGSAGGSAGGS [r4_419_TrMRF] | 0.703 ± 0.096 kcal/mol | 0.491 ± 0.097 kcal/mol | -0.418 ± 0.38 kcal/mol
17 | SAGGSAGGSAGGSLPFLKAKFTFTVRATVTVTVTDDDGKTTTEEFELETTVTVTLEPKPSAGGSAGGSAGGS [r4_162_TrROS_Hall] | 3.45 ± 0.07 kcal/mol | 3.1 ± 0.2 kcal/mol | 2.88 ± 0.15 kcal/mol
18 | SAGGSAGGSAGGSLSSNGSSLPPVPPAPVTDEPVEFPTPVLVTVSYYPLTGERRVEVLLSAGGSAGGSAGGS [r4_305_JUSTAS] | 0.272 ± 0.07 kcal/mol | 0.178 ± 0.068 kcal/mol | -0.291 ± 0.038 kcal/mol
19 | SAGGSAGGSAGGSMEFEVAEVFPDGWVVLRFPDGSRYRARLALDPETGEAKLLSLEPLPSAGGSAGGSAGGS [r4_247_TrMRF] | 4.41 ± 0.071 kcal/mol | 4.15 ± 0.2 kcal/mol | 3.27 ± 0.077 kcal/mol
20 | SAGGSAGGSAGGSMEITVETYPEVPLVRFTLPGGELVLLPVPPDVPEEEIRALAEALLASAGGSAGGSAGGS [r10_33_JUSTAS] | 0.833 ± 0.15 kcal/mol | 0.874 ± 0.12 kcal/mol | 0.897 ± 0.025 kcal/mol
21 | SAGGSAGGSAGGSMITLKIPPSKPEEAEKLAKSLGAELKSFDPNTGVVDINSPPGASLESAGGSAGGSAGGS [r4_3_JUSTAS] | -1.35 ± 0.74 kcal/mol | -0.929 ± 0.23 kcal/mol | -1.25 ± 0.58 kcal/mol

Row | Sequence | folding stability dG unfold [1] | folding stability dG unfold [2] | folding stability dG unfold [3]
22 | SAGGSAGGSAGGSMIVITTEGEEVRNSLPSSYNILETKEDPSVPSYTYDIKKPGTGKEESAGGSAGGSAGGS [r4_435_JUSTAS] | -0.979 ± 0.71 kcal/mol | < -1 kcal/mol | -1.55 ± 0.38 kcal/mol
23 | SAGGSAGGSAGGSMIVLNVPREVAEKIKEELIKKGIDPEKVKVIYIEVPLPEEPPESILSAGGSAGGSAGGS [r10_602_JUSTAS] | 0.351 ± 0.099 kcal/mol | 0.548 ± 0.16 kcal/mol | 0.798 ± 0.067 kcal/mol
24 | SAGGSAGGSAGGSMKTVELSSEEEAKKIVEEAKKKGIPLTLVLTDPKTGNPKTFEFPLASAGGSAGGSAGGS [r4_188_JUSTAS] | -0.248 ± 0.41 kcal/mol | 0.0568 ± 0.48 kcal/mol | -0.213 ± 0.22 kcal/mol
25 | SAGGSAGGSAGGSMKVEKLPDGKLLVFDVDTKEWKEIDVEDAEVVLDEDNGRAIVRIKPSAGGSAGGSAGGS [r4_127_TrROS_Hall] | 1.76 ± 0.076 kcal/mol | 0.902 ± 0.28 kcal/mol | -0.173 ± 0.16 kcal/mol
26 | SAGGSAGGSAGGSMKVILDKKNNELYILLKDENGKLLLAKITLLPNGEIKIEVYDLKDLSAGGSAGGSAGGS [r4_434_TrROS_Hall] | 3.98 ± 0.1 kcal/mol | 3.56 ± 0.13 kcal/mol | 2.27 ± 0.066 kcal/mol
27 | SAGGSAGGSAGGSMLVTEVSISPLPNGTVKVTTKLVLEPPDGVSVLEEESSVVSPEELSSAGGSAGGSAGGS [r4_389_JUSTAS] | 0.687 ± 0.041 kcal/mol | 0.484 ± 0.099 kcal/mol | 0.11 ± 0.028 kcal/mol
28 | SAGGSAGGSAGGSMPEGTVLSVDPSTGLKVVYFPGENKLVFEEISPSNELVKRSEFPLSSAGGSAGGSAGGS [r4_192_JUSTAS] | 0.436 ± 0.073 kcal/mol | 0.15 ± 0.13 kcal/mol | -0.116 ± 0.14 kcal/mol
29 | SAGGSAGGSAGGSMPIPYKIDSIEYYPPYPYYTLNVTGPENKPYTIIMSPENLENATIESAGGSAGGSAGGS [r4_51_TrMRF] | 0.607 ± 0.19 kcal/mol | 1.05 ± 0.23 kcal/mol | 1.43 ± 0.12 kcal/mol
30 | SAGGSAGGSAGGSMSTINFPSKEEIEAYLKKLGLKNVKLPWYPNNNVMDTSDIEKDILESAGGSAGGSAGGS [r4_101_JUSTAS] | 1.29 ± 0.03 kcal/mol | 1.14 ± 0.058 kcal/mol | 0.996 ± 0.022 kcal/mol
31 | SAGGSAGGSAGGSMSVVVTVKDPRTGSTTTVTVSPAEVEEAIEEAKKKGYSVVTVSEGGSAGGSAGGSAGGS [r4_102_JUSTAS] | 1.43 ± 0.024 kcal/mol | 1.68 ± 0.085 kcal/mol | 1.84 ± 0.1 kcal/mol
32 | SAGGSAGGSAGGSMTIIVKTEEEAKQLAERLKKELEELGLLENLKIEIKVIPEEDLPPESAGGSAGGSAGGS [r4_472_TrROS_Hall] | 2.33 ± 0.052 kcal/mol | 2.09 ± 0.08 kcal/mol | 1.29 ± 0.079 kcal/mol
33 | SAGGSAGGSAGGSMTLVIKNGIGYTVIKIKVEYDEETGEFSFELEIETKPVPPNYPVPASAGGSAGGSAGGS [r4_215_TrMRF] | 4.39 ± 0.33 kcal/mol | 3.99 ± 0.59 kcal/mol | 3.02 ± 0.33 kcal/mol
34 | SAGGSAGGSAGGSMTTLNLTNMSPEEIEAALKANPGPVTVTTTLPGGEITTKTYTVPPGSAGGSAGGSAGGS [r10_514_JUSTAS] | 0.644 ± 0.12 kcal/mol | 0.423 ± 0.083 kcal/mol | -0.0189 ± 0.047 kcal/mol
35 | SAGGSAGGSAGGSMVITMTEEEIKALLPPGAKVKVEVVEDEETKEKFVRVEVYPAKEEESAGGSAGGSAGGS [r4_119_TrROS_Hall] | -0.429 ± 0.15 kcal/mol | 0.0851 ± 0.21 kcal/mol | 0.0616 ± 0.059 kcal/mol
36 | SAGGSAGGSAGGSMVKILIEKENELYEIYVPKDEIPLDELVKKAKELFPDIVKIEVFDDSAGGSAGGSAGGS [r4_235_TrMRF] | 1.1 ± 0.03 kcal/mol | 0.966 ± 0.096 kcal/mol | 0.802 ± 0.039 kcal/mol
37 | SAGGSAGGSAGGSMVKISKEPDRLTITITPGNTPLVFESTEPISEEEFVEKAKKENPLISAGGSAGGSAGGS [r4_191_JUSTAS] | 1.03 ± 0.037 kcal/mol | 0.657 ± 0.17 kcal/mol | 0.215 ± 0.13 kcal/mol
38 | SAGGSAGGSAGGSMVSVEEFEVELPGGSKVKATVLIDPEGPLTVLLGDETFILPKEELGSAGGSAGGSAGGS [r10_649_JUSTAS] | -0.229 ± 0.19 kcal/mol | -0.118 ± 0.13 kcal/mol | -0.22 ± 0.2 kcal/mol
39 | SAGGSAGGSAGGSMVVEFSVGDTPIATIPFPGTEEEAKAAVEKLKEEYPSAEVKFTVHDESAGGSAGGSAGG [r7_81_JUSTAS] | 0.169 ± 0.075 kcal/mol | 0.342 ± 0.14 kcal/mol | 0.471 ± 0.031 kcal/mol
40 | SAGGSAGGSAGGSMYTAEPSVVLLPDGTLRTVTRYTFPDGSVTSETATSPLSPDDPALLSAGGSAGGSAGGS [r4_144_JUSTAS] | 0.949 ± 0.099 kcal/mol | 0.637 ± 0.087 kcal/mol | -0.0533 ± 0.1 kcal/mol
41 | SAGGSAGGSAGGSNIEIEYNPNMMTIRIEPGDKPIEIQIKSPMTMEEFIKTALDKFPGISAGGSAGGSAGGS [r4_191_TrROS] | 0.224 ± 0.18 kcal/mol | 0.415 ± 0.28 kcal/mol | 0.394 ± 0.061 kcal/mol
42 | SAGGSAGGSAGGSNMYIEIDEIERNPDDWYQITVKIYNPDNGEKEKITFYMPPGQEIKISAGGSAGGSAGGS [r4_133_TrROS] | 1.51 ± 0.12 kcal/mol | 1.25 ± 0.2 kcal/mol | 0.896 ± 0.076 kcal/mol
